The text below walks through data of US7326551B2, “Cloning and sequencing of pyruvate decarboxylase (PDC) genes from bacteria and uses therefor” (University of Florida Research Foundation, Inc., priority 2001, dated 2008).

Experiment in all cases: PDC activity by ADH-coupled assay, kinetic parameters for pyruvate
Substrate in data set [1]: CC(=O)C(=O)O
Type of data set: biochemical, Zymobacter palmae. To be noted: other: ZpaPDC. The protocol: (i) Purification of Z. palmae PDC—Z. palmae and E. coli DH5α (pJAM3440) cells were grown to stationary phase and harvested by centrifugation at 10,000×g (10 min, 4° C.). Cells (12 to 15 g wet wt) were resuspended in 6 volumes of 50 mM sodium phosphate buffer at pH 6.5 containing 1 mM TPP and 1 mM MgCl2 (buffer A) and passed through a chilled French pressure cell at 20,000 lb per in^2. Cell debris was removed by centrifugation at 16,000×g (20 min, 4° C.). Cell lysate was heated to 60° C. for 30 min, chilled on ice for 15 min, and centrifuged at 16,000×g (30 min at 4° C.) to remove denatured polypeptides. […]
PDC Quantitation and Enzyme Activity Assay—Polypeptide concentration was determined using Bradford reagent with bovine serum albumin as the standard (BioRad). PDC activity was measured by the coupled assay with baker's yeast alcohol dehydrogenase (ADH) (Sigma-Aldrich, St. Louis, Mo.) as previously described (11). The reaction mixture contained 0.15 mM NADH, 5 mM MgCl2, 0.1 mM TPP, 5 mM pyruvate, and 10 U ADH in 50 mM sodium citrate buffer at pH 5.0 and was measured at 25° C. unless otherwise indicated. […]
(§1) As a further comparison, the kinetic constants of all four bacterial PDC polypeptides were determined at their pH optimum as well as at pH 7.0 (Table 3). […]

Substrate in data set [2]: CC(=O)C(=O)O
The format is biochemical, Zymomonas mobilis. To be noted: other: ZmoPDC. How it is done:
All procedures were performed at room temperature and all purification buffers contained 1 mM TPP and 1 mM MgCl2 unless otherwise indicated. S. ventriculi PDC was purified from recombinant E. coli BL21-CodonPlus-RIL(pJAM419) and Rosetta (DE3)(pRARE, pJAM419) as previously described (45). Z. mobilis PDC was purified from recombinant E. coli DH5α (pLOI276) (11) using thermal treatment, Q-Sepharose, and Superdex 200 procedures as described below for the Z. palmae PDC with the exception that the Z. mobilis PDC was eluted from Q-Sepharose at 0.22 to 0.32 M NaCl.
(§2) PDC Quantitation and Enzyme Activity Assay—Polypeptide concentration was determined using Bradford reagent with bovine serum albumin as the standard (BioRad). PDC activity was measured by the coupled assay with baker's yeast alcohol dehydrogenase (ADH) (Sigma-Aldrich, St. Louis, Mo.) as previously described (11). The reaction mixture contained 0.15 mM NADH, 5 mM MgCl2, 0.1 mM TPP, 5 mM pyruvate, and 10 U ADH in 50 mM sodium citrate buffer at pH 5.0 and was measured at 25° C. unless otherwise indicated. One unit of enzyme activity is defined as the amount of enzyme that generates 1 μmol of acetaldehyde per min.
as §1

Substrate in data set [3]: CC(=O)C(=O)O
Type of data set: biochemical, Acetobacter pasteurianus. To be noted: other: ApaPDC.
Excerpt: (ii) Purification of A. pasteurianus PDC—PDC was purified from A. pasteurianus and E. coli ER1648(pJAM304) using heat-treatment, Q-Sepharose, Superdex 200, and hydroxyapatite as described for the Z. palmae PDC with the following modifications. Cells were passed through a French pressure cell at 30,000 lb per in^2. The PDC activity, which was eluted at 0.17 to 0.26 M NaCl from the Q-Sepharose column, was pooled and concentrated by dialysis against PEG8000 prior to loading onto the Superdex 200 column.
as §2, §1

[4] abbreviates: pH 7.0, normal Michaelis-Menten kinetics, pH 7.0, 25.0 °C.

B1: Zymobacter palmae pyruvate decarboxylase (ZpaPDC), recombinant, wild type, SEQ ID NO:2 (Zymobacter palmae) (protein)
chain: MYTVGMYLAERLAQIGLKHHFAVAGDYNLVLLDQLLLNKDMEQVYCCNELNCGFSAEGYARARGAAAAIVTFSVGAISAMNAIGGAYAENLPVILISGSPNTNDYGTGHILHHTIGTTDYNYQLEMVKHVTCARESIVSAEEAPAKIDHVIRTALRERKPAYLEIACNVAGAECVRPGPINSLLRELEVDQTSVTAAVDAAVEWLQDRQNVVMLVGSKLRAAAAEKQAVALADRLGCAVTIMAAEKGFFPEDHPNFRGLYWGEVSSEGAQELVENADAILCLAPVFNDYATVGWNSWPKGDNVMVMDTDRVTFAGQSFEGLSLSTFAAALAEKAPSRPATTQGTQAPVLGIEAAEPNAPLTNDEMTRQIQSLITSDTTLTAETGDSWFNASRMPIPGGARVELEMQWGHIGWSVPSAFGNAVGSPERRHIMMVGDGSFQLTAQEVAQMIRYEIPVIIFLINNRGYVIEIAIHDGPYNYIKNWNYAGLIDVFNDEDGHGLGLKASTGAELEGAIKKALDNRRGPTLIECNIAQDDCTETLIAWGKRVAATNSRKPQA
notes: coupled test with yeast ADH
Take B1: the Km in data set [1] (pH 6.0, 25° C., normal Michaelis-Menten kinetics, pH 6.0, 25.0 °C) amounted to 240 µM; in data set [1] (pH 7.0, normal Michaelis-Menten kinetics, pH 7.0), 710 µM.

B2: Zymomonas mobilis pyruvate decarboxylase (ZmoPDC), recombinant, wild type, SEQ ID NO:8 (Zymomonas mobilis subsp. mobilis ZM4 = ATCC 31821) (protein)
chain: MSYTVGTYLAERLVQIGLKHHFAVAGDYNLVLLDNLLLNKNMEQVYCCNELNCGFSAEGYARAKGAAAAVVTYSVGALSAFDAIGGAYAENLPVILISGAPNNNDHAAGHVLHHALGKTDYHYQLEMAKNITAAAEAIYTPEEAPAKIDHVIKTALREKKPVYLEIACNIASMPCAAPGPASALFNDEASDEASLNAAVEETLKFIANRDKVAVLVGSKLRAAGAEEAAVKFADALGGAVATMAAAKSFFPEENPHYIGTSWGEVSYPGVEKTMKEADAVIALAPVFNDYSTTGWTDIPDPKKLVLAEPRSVVVNGVRFPSVHLKDYLTRLAQKVSKKTGALDFFKSLNAGELKKAAPADPSAPLVNAEIARQVEALLTPNTTVIAETGDSWFNAQRMKLPNGARVEYEMQWGHIGWSVPAAFGYAVGAPERRNILMVGDGSFQLTAQEVAQMVRLKLPVIIFLINNYGYTIEVMIHDGPYNNIKNWDYAGLMEVFNGNGGYDSGAGKGLKAKTGGELAEAIKVALANTDGPTLIECFIGREDCTEELVKWGKRVAAANSRKPVNKLL
notes: coupled test with yeast ADH
As to B2, the Km is 430 µM in data set [2] (pH 6.0, normal Michaelis-Menten kinetics, pH 6.0, 25.0 °C) and 940 µM in data set [2] (setting [4]).

B3: Acetobacter pasteurianus pyruvate decarboxylase (ApaPDC), recombinant, wild type, SEQ ID NO:4 (Acetobacter pasteurianus) (protein)
chain: MTYTVGMYLAERLVQIGLKHHFAVGGDYNLVLLDQLLLNKDMKQIYCCNELNCGFSAEGYARSNGAAAAVVTFSVGAISAMNALGGAYAENLPVILISGAPNSNDQGTGHILHHTIGKTDYSYQLEMARQVTCAAESITDAHSAPAKIDHVIRTALRERKPAYLDIACNIASEPCVRPGPVSSLLSEPEIDHTSLKAAVDATVALLKNRPAPVMLLGSKLRAANALAATETLADKLQCAVTIMAAAKGFFPEDHAGFRGLYWGEVSNPGVQELVETSDALLCIAPVFNDYSTVGWSGMPKGPNVILAEPDRVTVDGRAYDGFTLRAFLQALAEKAPARPASAQKSSVPTCSLTATSDEAGLTNDEIVRHINALLTSNTTLVAETGDSWFNAMRMTLAGARVELEMQWGHIGWSVPSAFGNAMGSQDRQHVVMVGDGSFQLTAQEVAQMVRYELPVIIFLINNRGYVIEIAIHDGPYNYIKNWDYAGLMEVFNAGEGHGLGLKATTPKELTEAIARAKANTRGPTLIECQIDRTDCTDMLVQWGRKVASTNARKTTLA
notes: coupled test with yeast ADH
On to B3, for which the Km in data set [3] (pH 5.0, 25° C., normal Michaelis-Menten kinetics, pH 5.0) came out at 390 µM; in data set [3] (setting [4]), 5100 µM.
